Laboratory results taken from IntAct's records for PubMed 20818436.

B1: Zinc finger protein GLI1 (Homo sapiens), P08151 (parent)
chain: MFNSMTPPPISSYGEPCCLRPLPSQGAPSVGTEGLSGPPFCHQANLMSGPHSYGPARETNSCTEGPLFSSPRSAVKLTKKRALSISPLSDASLDLQTVIRTSPSSLVAFINSRCTSPGGSYGHLSIGTMSPSLGFPAQMNHQKGPSPSFGVQPCGPHDSARGGMIPHPQSRGPFPTCQLKSELDMLVGKCREEPLEGDMSSPNSTGIQDPLLGMLDGREDLEREEKREPESVYETDCRWDGCSQEFDSQEQLVHHINSEHIHGERKEFVCHWGGCSRELRPFKAQYMLVVHMRRHTGEKPHKCTFEGCRKSYSRLENLKTHLRSHTGEKPYMCEHEGCSKAFSNASDRAKHQNRTHSNEKPYVCKLPGCTKRYTDPSSLRKHVKTVHGPDAHVTKRHRGDGPLPRAPSISTVEPKREREGGPIREESRLTVPEGAMKPQPSPGAQSSCSSDHSPAGSAANTDSGVEMTGNAGGSTEDLSSLDEGPCIAGTGLSTLRRLENLRLDQLHQLRPIGTRGLKLPSLSHTGTTVSRRVGPPVSLERRSSSSSSISSAYTVSRRSSLASPFPPGSPPENGASSLPGLMPAQHYLLRARYASARGGGTSPTAASSLDRIGGLPMPPWRSRAEYPGYNPNAGVTRRASDPAQAADRPAPARVQRFKSLGCVHTPPTVAGGGQNFDPYLPTSVYSPQPPSITENAAMDARGLQEEPEVGTSMVGSGLNPYMDFPPTDTLGYGGPEGAAAEPYGARGPGSLPLGPGPPTNYGPNPCPQQASYPDPTQETWGEFPSHSGLYPGPKALGGTYSQCPRLEHYGQVQVKPEQGCPVGSDSTGLAPCLNAHPSEGPPHPQPLFSHYPQPSPPQYLQSGPYTQPPPDYLPSEPRPCLDFDSPTHSTGQLKAQLVCNYVQSQQELLWEGGGREDAPAQEPSYQSPKFLGGSQVSPSRAKAPVNTYGPGFGPNLPNHKSGSYPTPSPCHENFVVGANRASHRAAAPPRLLPPLPTCYGPLKVGGTNPSCGHPEVGRLGGGPALYPPPEGQVCNPLDSLDLDNTQLDFVAILDEPQGLSPPPSHDQRGSSGHTPPPSGPPNMAVGNMSVLLRSLPGETEFLNSSA

Variants of: B1
Settings: with itch_human ITCH

effect of a mutation on the interaction	Variant
disrupting interaction	Y859F;Y872F;S1060A
